Data from patent US20040014939.

Test system: T1, synthetic substrate Mcc-Pro-Leu-Gly-Pro-D-Lys(DNP)-OH
T1 sequence: PLGPK

luciferase as a fusion protein with 6×His tag
enzyme activity (fluorescence intensity, excitation 345±10 nm, emission 425±10 nm, 37° C. for 1 h): the enzyme activity was not detected in the water-soluble fraction in the case of a control in which luciferase gene was introduced into the similar expression vector
